Results taken from patent publication US20250011363A1, “OPTIMIZED SHORTENED PEPTIDE THAT BINDS TO ACETYLCHOLINE RECEPTOR, AND USE THEREOF” (SKINMED CO., LTD., priority 2021, published 2025).

B1: 6mer-2-692 (peptide)
peptide: KYTNRR
B2: 6mer-2-622 (peptide)
peptide: RYTNKR
B3: 6mer-2-632 (peptide)
peptide: KYDIKR
B4: 6mer-2-643 (peptide)
peptide: KANPKK
B5: 6mer-2-648 (peptide)
peptide: RYPDRK
B6: 6mer-2-677 (peptide)
peptide: RENWKK
B7: 6mer-2-668 (peptide)
peptide: RFCNKK
B8: 6mer-2-690 (peptide)
peptide: KFTMRK
B9: 6mer-2-637 (peptide)
peptide: RPPVRK
B10: 6mer-2-633 (peptide)
peptide: KYAVKR
B11: 6mer-2-627 (peptide)
peptide: KKTARR
B12: 6mer-2-636 (peptide)
peptide: KMAPKR
B13: 6mer-2-626 (peptide)
peptide: KNSEKK
B14: 6mer-2-640 (peptide)
peptide: KFKKKR
B15: 6mer-2-676 (peptide)
peptide: KCTAKK
B16: 6mer-2-680 (peptide)
peptide: KNHGKR
B17: 6mer-2-666 (peptide)
peptide: KPMDRR
B18: 6mer-2-688 (peptide)
peptide: RPMFRK
B19: 6mer-2-663 (peptide)
peptide: KFAGRR
B20: 6mer-2-652 (peptide)
peptide: RTTMRK
B21: 6mer-2-695 (peptide)
peptide: KCWWRR
B22: 6mer-2-669 (peptide)
peptide: KNMWRK
B23: 6mer-2-656 (peptide)
peptide: KADPRR
B24: 6mer-2-673 (peptide)
peptide: RFCGRK
B25: 6mer-2-625 (peptide)
peptide: RFPDKK
B26: 6mer-2-660 (peptide)
peptide: RHKDRK
B27: 6mer-2-634 (peptide)
peptide: RYEHRK
B28: 6mer-2-664 (peptide)
peptide: KCCWKK
B29: 6mer-2-654 (peptide)
peptide: RMPEKR
B30: 6mer-2-630 (peptide)
peptide: RYAFRR
B31: 6mer-2-683 (peptide)
peptide: KTEIRK
B32: 6mer-2-659 (peptide)
peptide: KIPNKR
B33: 6mer-2-620 (peptide)
peptide: RHTGRR
B34: 6mer-2-647 (peptide)
peptide: KTEPKR
B35: 6mer-2-653 (peptide)
peptide: KIEMKR
B36: 6mer-2-657 (peptide)
peptide: RKHERK
B37: 6mer-2-651 (peptide)
peptide: KNADRR
B38: 6mer-2-689 (peptide)
peptide: RDKERR
B39: 6mer-2-628 (peptide)
peptide: RKSFKR
B40: 6mer-2-662 (peptide)
peptide: KAHPKK
B41: 6mer-2-661 (peptide)
peptide: RMKAKK
B42: 6mer-2-682 (peptide)
peptide: RNMERR
B43: 6mer-2-649 (peptide)
peptide: KFDVRK
B44: 6mer-2-685 (peptide)
peptide: KFHNRK
B45: 6mer-2-672 (peptide)
peptide: KIDDRK
B46: 6mer-2-629 (peptide)
peptide: RFCWKK
B47: 6mer-2-686 (peptide)
peptide: KTWEKK
B48: 6mer-2-644 (peptide)
peptide: REPNRR
B49: 6mer-2-675 (peptide)
peptide: RMKWRK
B50: 6mer-2-623 (peptide)
peptide: KHAHRR
B51: 6mer-2-642 (peptide)
peptide: KTENKK
B52: 6mer-2-658 (peptide)
peptide: RYWVKK
B53: 6mer-2-665 (peptide)
peptide: KCAERR
B54: 6mer-2-687 (peptide)
peptide: KADGRK
B55: 6mer-2-671 (peptide)
peptide: RDWIRR
B56: 6mer-2-667 (peptide)
peptide: KHDMRR
B57: 6mer-2-670 (peptide)
peptide: RKWHKR
B58: 6mer-2-650 (peptide)
peptide: RFKARK
B59: 6mer-2-655 (peptide)
peptide: KIWFRR
B60: 6mer-2-621 (peptide)
peptide: RHEPKR
B61: 6mer-2-681 (peptide)
peptide: RDTWRR
B62: 6mer-2-639 (peptide)
peptide: KHTVKK
B63: 6mer-2-619 (peptide)
peptide: RPPDRR
B64: 6mer-2-674 (peptide)
peptide: KKWERK
B65: 6mer-2-679 (peptide)
peptide: RYSAKK
B66: 6mer-2-631 (peptide)
peptide: KYCMKR
B67: 6mer-2-691 (peptide)
peptide: RHKMRK
B68: 6mer-2-641 (peptide)
peptide: REEFRR
B69: 6mer-2-645 (peptide)
peptide: RIKVKK
B70: 6mer-2-646 (peptide)
peptide: RAAPRR
B71: 6mer-2-693 (peptide)
peptide: KNTIRR
B72: 6mer-2-624 (peptide)
peptide: KPPIRK
B73: 6mer-2-694 (peptide)
peptide: KDSIRK
B74: 6mer-2-696 (peptide)
peptide: KFTKKK
B75: 6mer-2-638 (peptide)
peptide: RCWAKR
B76: 6mer-2-684 (peptide)
peptide: RYTMKK
B77: 6mer-2-635 (peptide)
peptide: KECVRR
B78: 6mer-2-678 (peptide)
peptide: KEWWRR

Molecular target: acetylcholine receptor
Experiment: SPR, AchR immobilised on CM5 chip, peptide 10 uM

Binding affinity (RU), 32 RU:
B9
B36
B46
B60
B70
B78

Binding affinity (RU), 19 RU:
B34

Binding affinity (RU), 20 RU:
B29
B35
B45
B65
B74

Binding affinity (RU), 22 RU:
B32
B73

Binding affinity (RU), 25 RU:
B17
B56

Binding affinity (RU), 12 RU:
B3
B4
B48
B68

Binding affinity (RU), 28 RU:
B6
B21

Binding affinity (RU), 31 RU:
B43
B59

Binding affinity (RU), 15 RU:
B16
B22
B44
B67
B69

Binding affinity (RU), 24 RU:
B19
B38

Binding affinity (RU), 26 RU:
B63
B64

Binding affinity (RU), 29 RU:
B1
B41

Binding affinity (RU), 11 RU:
B23
B28
B40
B77

Binding affinity (RU), 27 RU:
B30
B55

Binding affinity (RU), 33 RU:
B11
B13
B25
B27
B31
B33
B42
B57
B61
B72

Binding affinity (RU), 18 RU:
B53
B58

Binding affinity (RU), 23 RU:
B5
B24
B52
B62

Binding affinity (RU), 14 RU:
B15
B49
B76

Binding affinity (RU), 13 RU:
B2
B7
B8
B18
B50

Binding affinity (RU), 16 RU:
B20
B26
B51
B54
B66
B71

Binding affinity (RU), 17 RU:
B10

Binding affinity (RU), 21 RU:
B12
B14
B37
B47

Binding affinity (RU), 30 RU:
B39
B75
